Target: BTN3A expressed at the cell surface (human), O00481
Assay: cell-based or functional assay

Sequence of BTN3A expressed at the cell surface (human), O00481 (O00481 30-513): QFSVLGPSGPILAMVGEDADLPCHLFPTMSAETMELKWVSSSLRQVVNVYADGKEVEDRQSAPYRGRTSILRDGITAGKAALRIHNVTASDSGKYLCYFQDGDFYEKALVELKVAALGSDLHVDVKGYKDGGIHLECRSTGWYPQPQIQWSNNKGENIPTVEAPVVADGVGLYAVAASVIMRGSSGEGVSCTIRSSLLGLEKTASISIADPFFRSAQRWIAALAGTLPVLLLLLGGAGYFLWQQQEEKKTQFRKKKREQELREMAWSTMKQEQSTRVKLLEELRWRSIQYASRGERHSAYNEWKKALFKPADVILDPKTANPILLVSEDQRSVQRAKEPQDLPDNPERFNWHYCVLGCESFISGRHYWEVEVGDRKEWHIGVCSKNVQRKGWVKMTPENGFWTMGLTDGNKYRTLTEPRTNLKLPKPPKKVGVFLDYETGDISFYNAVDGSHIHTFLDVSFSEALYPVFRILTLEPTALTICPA

B1: bsAb034 (bispecific antibody, not shown: small tags and cut ends; a dimerising Fc or GST)
heavy (part 1 of 2): QVQLVQSGVEVKKPGASVKVSCKASGYTFTNYYMYWVRQAPGQGLEWMGGINPSNGGTNFNEKFKNRVTLTTDSSTTTAYMELKSLQFDDTAVYYCARRDYRFDMGFDYWGQGTTVTVSS
heavy (part 2 of 2): GGGGSGGGGSGGGGSGGGGSQVQLVQSGAEVKKPGASVKLSCKASGYIFTRYYMYWVKQRPGQGLEWIGEINPNNGGTKFNEKFKNRATLTVDKSISTAYMELSRLRSDDTAVYYCSREDDYDGTPFAMDYWGQGTLVTVSSGGGGSGGGGSGGGGSGGGGSDIQMTQSPSSLSASVGDRVTITCHASQNINVWLSWYQQKPGKAPKLLIYKASNLHTGVPSRFTGSGSGTDFTFTISSLQPEDIATYYCQQGQTYPYTFGQGTKLEIK
heavy: B1 heavy (part 2 of 2)
light: EIVLTQSPATLSLSPGERATLSCRASKGVSTSGYSYLHWYQQKPGQAPRLLIYLASYLESGVPARFSGSGSGTDFTLTISSLEPEDFAVYYCQHSRDLPLTFGGGTKVEIKRTVAAPSVFIFPPSDEQLKSGTASVVCLLNNFYPREAKVQWKVDNALQSGNSQESVTEQDSKDSTYSLSSTLTLSKADYEKHKVYACEVTHQGLSSPVTKSFNRGEC
- Jurkat-Vy9Vo2 TCR MOP activation at 0.5 nM (fold-change to medium): 0.9
- Jurkat-Vy9Vo2 TCR MOP activation at 5 nM (fold-change to medium): 1.1

B2: bsAb037 (bispecific antibody, not shown: small tags and cut ends; a dimerising Fc or GST)
heavy 1: B1 heavy (part 1 of 2)
heavy 2: DIQMTQSPSSLSASVGDRVTITCHASQNINVWLSWYQQKPGKAPKLLIYKASNLHTGVPSRFTGSGSGTDFTFTISSLQPEDIATYYCQQGQTYPYTFGQGTKLEIKGGGGSGGGGSGGGGSGGGGSQVQLVQSGAEVKKPGASVKLSCKASGYIFTRYYMYWVKQRPGQGLEWIGEINPNNGGTKFNEKFKNRATLTVDKSISTAYMELSRLRSDDTAVYYCSREDDYDGTPFAMDYWGQGTLVTVSSGGGGSGGGGSGGGGSGGGGS
light: EIVLTQSPATLSLSPGERATLSCRASKGVSTSGYSYLHWYQQKPGQAPRLLIYLASYLESGVPARFSGSGSGTDFTLTISSLEPEDFAVYYCQHSRDLPLTFGGGTKVEIKRTVAAPSVFIFPPSDEQLKSGTASVVCLLNNFYPREAKVQWKVDNALQSGNSQESVTEQDSKDSTYSLSSTLTLSKADYEKHKVYACEVTHQGLSSPVTKSFNRGECGGGGSGGGGSGGGGSGGGGSQVQLVQSGAEVKKPGASVKLSCKASGYIFTRYYMYWVKQRPGQGLEWIGEINPNNGGTKFNEKFKNRATLTVDKSISTAYMELSRLRSDDTAVYYCSREDDYDGTPFAMDYWGQGTLVTVSSGGGGSGGGGSGGGGSGGGGSDIQMTQSPSSLSASVGDRVTITCHASQNINVWLSWYQQKPGKAPKLLIYKASNLHTGVPSRFTGSGSGTDFTFTISSLQPEDIATYYCQQGQTYPYTFGQGTKLEIK
- Jurkat-Vy9Vo2 TCR MOP activation at 0.5 nM (fold-change to medium): 1.2
- Jurkat-Vy9Vo2 TCR MOP activation at 5 nM (fold-change to medium): 1.7

Source: patent US20260265379A1
